Results taken from PMC10863849, “A kinesin-13 family kinesin in Trypanosoma brucei regulates cytokinesis and cytoskeleton morphogenesis by promoting microtubule bundling” (PLOS Pathogens, 2024).

Assays:
Test in all cases: native gel or EMSA; blue native gel electrophoresis (NativePAGE Novex 3-12% Bis-Tris), 225 ng purified recombinant protein in BRB80-DTT buffer plus 5% glycerol, silver-stained; oligomer size read from band mobility
[1] = target: recombinant hexahistidine-tagged full-length KIN13-5 (a.a. 1-719) (T. brucei)
GST = target: GST
[2] = target: recombinant hexahistidine-tagged KIN13-1 (T. brucei)
[3] = target: KIN13-5 CC-deletion mutant (a.a. 1-642), hexahistidine-tagged (T. brucei)
[4] = target: GST-fused TbSpef1 (full-length TbSpef1 with N-terminal GST) (T. brucei)
[5] = target: motor domain of KIN13-5 (a.a. 170-536), hexahistidine-tagged (T. brucei)
[6] = target: KIN13-5 SAM domain-deletion mutant (a.a. 71-719), hexahistidine-tagged (T. brucei)
[7] = target: the molecule itself

## recombinant hexahistidine-tagged full-length KIN13-5 (a.a. 1-719) (natural protein)
[1]
  stoichiometry N: 8

## GST (natural protein)
GST
  stoichiometry N: 2

## recombinant hexahistidine-tagged KIN13-1 (natural protein)
[2]
  stoichiometry N: 2

## KIN13-5 CC-deletion mutant (a.a. 1-642), hexahistidine-tagged (domain or fragment)
[3]
  stoichiometry N: 2

## GST-fused TbSpef1 (full-length TbSpef1 with N-terminal GST) (natural protein)
[4]
  stoichiometry N: 4

## motor domain of KIN13-5 (a.a. 170-536), hexahistidine-tagged (domain or fragment)
[5]
  stoichiometry N: 4

## KIN13-5 SAM domain-deletion mutant (a.a. 71-719), hexahistidine-tagged (domain or fragment)
[6]
  stoichiometry N: 4

B1: recombinant hexahistidine-tagged KIN-G (natural protein)
chain: MAKPLSGKAAPKNISVFLRVRPPVPRELKGGTFNNLVCDPSDPQRVTITRGGSARKGTKSFLFNRVFDPECTQQTIYNEVARGAVDAAFDGQHGVLFVYGQTGSGKTFTISNNDPEKPGVLQQSLRDIWDRFQADTEYDYSCTVSYVQLYNEMLTDLLDPQGGRVRIQLGPEGRGDVVLVTEASGASIERKVESYEDCLKYFYEGMDRKEMTSTKMNNTSSRSHTVFNFNLTRSAKVKTVDLSSAKANNEPVIALQGRLVVCDLAGSERASRTNAEGKTLDEATHINGSLLVLGKVVAALTESGSQHAPFRESKLTRILQYSLLGNGNTSIVVNCSPCDDSTEETLGAIMFGQRAIQIKQDAKRHEILDYKALYYQLLADLDSKNDRTLETALSEERTAYEDRIRVLEERIKILTSENDMLRRESSQLGGTGPVSGTSTASGAAAAAVAMGGDDANDWRSLTMKMRRAIEKLDADLKRTDKERVELAQFLALEKNKVNVLAQKLRAESLKHIMENKELTQRVTELSIDNAKLKGTDYISFQPSAACEDALPLSLDSPRRGTPSSGLSQSINVGDAYLQEQLDKANRQLRVLNEERVELIVYQMMASKAIRLLHAEKTSLANHLEKLKA
[7]
  stoichiometry N: ~4
